Experiments:
human B7-DC = biological target: T1, human B7-DC (human, UniProt Q9BQ51 20-273); test: flow cytometry on Ltk cells transiently transfected with human B7-DC
T1 construct: whole, on cells; also called hB7.DC; human B7-DC orthologue
T1 sequence (looked up): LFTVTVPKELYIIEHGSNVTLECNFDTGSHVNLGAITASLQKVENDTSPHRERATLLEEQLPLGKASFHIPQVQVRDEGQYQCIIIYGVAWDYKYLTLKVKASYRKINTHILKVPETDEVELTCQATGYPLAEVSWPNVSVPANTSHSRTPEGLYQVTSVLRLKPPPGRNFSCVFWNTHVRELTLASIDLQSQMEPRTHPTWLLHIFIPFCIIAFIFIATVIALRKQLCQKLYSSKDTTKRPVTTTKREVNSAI
Excerpt: Furthermore, the level of sHIgM12 binding to L-cells was positively correlated with the amount of B7-DC plasmid used in the transfection.

murine B7-DC = biological target: T2, murine B7-DC (murine, UniProt Q9WUL5 20-247); test: cell-based or functional assay
T2 sequence (looked up): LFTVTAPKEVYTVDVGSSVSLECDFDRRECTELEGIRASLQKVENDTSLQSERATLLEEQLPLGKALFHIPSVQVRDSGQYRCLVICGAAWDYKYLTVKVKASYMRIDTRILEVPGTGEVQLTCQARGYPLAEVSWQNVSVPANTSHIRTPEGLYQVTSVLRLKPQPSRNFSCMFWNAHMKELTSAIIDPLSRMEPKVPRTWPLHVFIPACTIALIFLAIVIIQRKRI

binding result (human B7-DC): binds | GFP+, CD11c+ DC recovered from draining lymph nodes after adoptive transfer (murine B7-DC): 5 fold | IL-12 p70 release by DC (ELISA), against LPS (murine B7-DC): ~3 fold | ability of lymph node DC to induce an antigen-specific T cell response (murine B7-DC): 10 fold
B1: sHIgM12 (human monoclonal IgM antibody, pentameric) (antibody)
heavy: QVQLQESGPGLLKPSETLSLTCTVSGGSVSLYYWSWIRQSPGKEPEWIGYIYSSGSTDYNPSLRSRVTISLDTSNNRFSLNLRSVTAADTAVYWCARSASIRGWFDPWGQGTLVTVSSGSASAPTLFPLVSCENSPSDTSSVAVGCLAQDFLPDSITFSWKYKNNSDISSTRGFPSVLRGGKYAATSQVLLPSKDVMQGTDEHVVCKVQHPNGNKEKNVPLPVIAELPPKVSVFVPPRDGFFGNPRKSKLICQATGFSPRQIQVSWLREGKQVGSGVTTDQVQAEAKESGPTTYKVTSTLTIKESDWLSQSMFTCRVDHRGLTFQQNASSMCVPDQDTAIRVFAIPPSFASIFLTKSTKLTCLVTDLTTYDSVTISWTRQNGEAVKTHTNISESHPNATFSAVGEASICEDDWNSGERFTCTVTHTDLPSPLKQTISRPKGVALHRPDVYLLPPAREQLNLRESATITCLVTGFSPADVFVQWMQRGQPLSPEKYVTSAPMPEPQAPGRYFAHSILTVSEEEWNTGETYTCVVAHEALPNRVTERTVDKSTGKPTLYNVSLVMSDTAGTCY
light: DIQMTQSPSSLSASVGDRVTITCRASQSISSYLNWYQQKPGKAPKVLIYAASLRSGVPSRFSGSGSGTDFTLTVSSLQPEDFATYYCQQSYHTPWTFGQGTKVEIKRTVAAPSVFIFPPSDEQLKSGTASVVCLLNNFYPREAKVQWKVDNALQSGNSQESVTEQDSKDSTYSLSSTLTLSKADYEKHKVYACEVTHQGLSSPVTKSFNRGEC
notes: IgM/kappa purified from human patient serum; A J chain is not mentioned; also called B7-DC cross-linking antibody; sHIgM12 antibody

Reference: US20160122431A1 (MAYO FOUNDATION FOR MEDICAL EDUCATION AND RESEARCH, published 2016)
